Target: HIV-1 integrase (HIV-1)

lens-epithelium derived growth factor (LEDGF/p75) (from UniProt O75475 1-530) (natural protein)
LEDGF/p75-dependent activation of in vitro integration into PN (polynucleosome) templates, IN-LEDGF/p75 preformed complex against IN alone (radiolabelled donor, average of four templates): 5 fold
